The supplement of paper PMC12338614
± gives the uncertainty stated by the source.

B1: library; numbered along this chain (parent)
chain: MEVVDPQQLGMFTEGELMSVGMDTFIHRIDSTEVIYQPRRKRAKLIGKYLMGDLLGEGSYGKVKEVLDSETLCRRAVKILKKKKLRRIPNGEANVKKEIQLLRRLRHKNVIQLVDVLYNEEKQKMYMVMEYCVCGMQEMLDSVPEKRFPVCQAHGYFCQLIDGLEYLHSQGIVHKDIKPGNLLLTTGGTLKISDLGVAEALHPFAADDTCRTSQGSPAFQPPEIANGLDTFSGFKVDIWSAGVTLYNITTGLYPFEGDNIYKLFENIGKGSYAIPGDCGPPLSDLLKGMLEYEPAKRFSIRQIRQHSWFRKKHPPAEAPVPIPPSPDTKDRWRSMTVVPYLEDLHGADEDEDLFDIEDDIIYTQDFTVPGQVPEEEASHNGQRRGLPKAVCMNGTEAAQLSTKSRAEGRAPNPARKACSASSKIRRLSACKQQ

Variants of: B1
Assay: STK11 functional score (HeLa growth suppression), rescaled enrichment; synonymous median = 1, nonsense median = 0 (normalised score)
Settings: with HeLa; variant type: missense
How it was run: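 The values are functional scores: wild-type-corrected log ratios of post- versus pre-selection abundance, rescaled to synonymous and nonsense medians, merged over codons and replicate transfections, and carrying bootstrapped error. They derive from codon-randomised (POPCode), codon-optimised STK11 libraries that Bxb1 integrated at an AAVS1 landing pad in HeLa, with three transfections for each of three regions. Sequencing of tiled gDNA amplicons ran on NextSeq, at ~2 million reads per tile.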

Variant | STK11 functional score
K178I | 0.388 ± 0.11
E70A | 1.43 ± 0.43
R409M | 1.15 ± 0.63
R409Y | 1.53 ± 0.19
R409A | 1.49 ± 0.2
M129L | 0.635 ± 0.09
P6D | 1.66 ± 0.16
K416H | 1.42 ± 0.19
D30H | 1.31 ± 0.68
P222Q | 0.712 ± 0.2
P281V | 1.19 ± 0.14
S193R | -0.142 ± 0.11
T363N | 1.03 ± 0.33
P411K | 1.57 ± 0.35
S419F | 1.46 ± 0.18
P149Y | -0.0036 ± 0.19
W332R | 1.55 ± 0.35
H345S | 1.18 ± 0.2
S232E | 1.36 ± 0.33
S232L | 0.996 ± 0.2
K146Q | 1.52 ± 0.51
M125W | 1.25 ± 0.15
G288V | 0.518 ± 0.45
D229V | 0.388 ± 0.095
D229H | 0.539 ± 0.17
T328H | 1.52 ± 0.17

Variant | STK11 functional score
G381I | 1.57 ± 0.22
G381D | 1.57 ± 0.29
G381A | 1.09 ± 0.4
V116E | 1.52 ± 0.76
I356W | 1.66 ± 0.25
K175S | 0.884 ± 0.23
G135Y | 1.32 ± 0.09
V143F | 1.01 ± 0.28
V143D | 1.46 ± 0.33
A205R | 1.23 ± 0.32
K312D | 1.49 ± 0.22
K312P | 1.37 ± 0.16
R333I | 1.49 ± 0.23
S283L | 0.985 ± 0.11
S283M | 1.28 ± 0.22
M136R | -0.124 ± 0.086
H107L | 0.324 ± 0.13
L9H | 1.67 ± 0.15
A318L | 1.58 ± 0.18
L427K | 1.53 ± 0.13
A398W | 0.886 ± 0.088
A398Q | 1.58 ± 0.22
V3A | 1.46 ± 0.16
V236I | 1.24 ± 0.96
G91Q | 1.1 ± 0.13
P280N | 1.63 ± 0.21

Variant | STK11 functional score
P280L | 1.32 ± 0.19
R331Y | 1.35 ± 0.16
R331V | 1.13 ± 0.57
G187V | 0.795 ± 0.26
G187T | 1.59 ± 0.4
F255S | 1.14 ± 0.19
R40L | 0.804 ± 0.16
R40I | 1.63 ± 0.21
E65F | 1.22 ± 0.15
A273C | 0.584 ± 0.098
R384D | 1.2 ± 0.15
R147L | 0.461 ± 0.097
L117E | 1.45 ± 0.19
H154V | 0.314 ± 0.077
H154F | 0.39 ± 0.065
R297G | -0.132 ± 0.076
A200D | 0.859 ± 0.28
G251W | -0.00281 ± 0.1
G251P | 0.0226 ± 0.16
G251F | 0.127 ± 0.13
D115P | 0.396 ± 0.48
Y292S | 1.28 ± 0.23
Y292C | 0.438 ± 0.15
P339E | 0.55 ± 0.16
I274M | 0.974 ± 0.14
T244I | 0.627 ± 0.11

Variant | STK11 functional score
Q8K | 0.838 ± 0.23
P217H | 0.332 ± 0.43
K122V | 0.86 ± 0.084
E92N | 1.39 ± 0.11
G215S | 1.11 ± 0.18
G56P | 0.136 ± 0.092
V66M | -0.0689 ± 0.32
V66L | 1.1 ± 0.11
C210P | 1.18 ± 0.4
T212D | 1.48 ± 0.21
G52C | 1.49 ± 0.16
A414K | 1.55 ± 0.26
V150P | 0.992 ± 0.14
T71Q | 1.58 ± 0.14
I111R | 1.16 ± 0.13
K97T | 1.32 ± 0.48
K97P | 1.1 ± 0.4
I172W | 0.519 ± 0.11
I300W | 1.27 ± 0.09
L344V | 1.42 ± 0.27
L344E | 1.28 ± 0.53
Q159N | 0.806 ± 0.79
G268A | 0.916 ± 0.13
A295D | 1.21 ± 0.17
Q214A | 1.18 ± 0.19
D208R | 1.59 ± 0.26

Variant | STK11 functional score
E57P | 1.62 ± 0.32
E57L | 0.946 ± 0.29
T250C | 1.22 ± 0.24
M289G | -0.0773 ± 0.11
P413I | 1.56 ± 0.28
P413V | 1.4 ± 0.24
P413R | 1.49 ± 0.33
N119L | 1.17 ± 0.27
A206F | 0.495 ± 0.22
A206G | 1.14 ± 0.26
P144D | 1.46 ± 0.29
T32V | 1.41 ± 0.54
P203R | 1.01 ± 0.65
K48D | 1.34 ± 0.081
K48L | 1.3 ± 0.17
N247L | 1.17 ± 0.15
F366R | 1.52 ± 0.17
C278L | 1.08 ± 0.46
G270P | 1.43 ± 0.19
E223Y | 1 ± 0.71
E357Y | 1.39 ± 0.26
P326M | 1.45 ± 0.12
A410V | 1.32 ± 0.21
Q37H | 0.921 ± 0.36
L282A | 0.846 ± 0.18
L282Y | 1.07 ± 0.17

Variant | STK11 functional score
L140W | -0.107 ± 0.081
L140A | 0.543 ± 0.27
S240T | 1.07 ± 0.16
C418M | 1.54 ± 0.14
E145V | 0.644 ± 0.079
E145R | 1.21 ± 0.43
C151L | 0.508 ± 0.091
I260S | 1.44 ± 0.32
P387A | 1.32 ± 0.35
Y362V | 1.32 ± 0.36
Y362S | 1.25 ± 0.19
R425F | 1.11 ± 0.54
R425Y | 1.54 ± 0.29
Q305V | 1.59 ± 0.25
D258E | 0.739 ± 0.3
I248H | -0.139 ± 0.09
I248F | 0.497 ± 0.092
T249S | 1.24 ± 0.27
T249V | 1.56 ± 0.1
L400W | 1.56 ± 0.3
L400Q | 1.27 ± 0.42
G163V | 0.0343 ± 0.1
G370I | 1.6 ± 0.29
Y246V | 0.944 ± 0.15
S421N | 1.6 ± 0.15
I424D | 1.54 ± 0.2

Variant | STK11 functional score
I424K | 1.22 ± 0.33
V95N | 1.6 ± 0.14
L263V | 0.76 ± 0.22
L263M | 0.891 ± 0.17
K81S | 0.932 ± 0.1
T24S | 1.15 ± 0.41
T24V | 0.875 ± 0.17
T24R | 0.782 ± 0.14
G47V | 0.431 ± 0.69
H306P | 0.114 ± 0.26
M139A | 1.39 ± 0.58
M139E | 0.269 ± 0.09
I267V | 1.09 ± 0.29
D355I | 1.18 ± 0.42
I238C | 1.39 ± 0.33
F264P | 1.4 ± 0.39
L386G | 1.19 ± 0.34
Y340D | 0.511 ± 0.17
Y340C | 1.63 ± 0.13
V243M | 0.378 ± 0.14
V243A | 0.996 ± 0.097
V243C | 1 ± 0.099
Q100G | 1.17 ± 0.14
K41P | 1.58 ± 0.37
E342A | 1.11 ± 0.29
Q302C | 1 ± 0.73

Variant | STK11 functional score
N226Q | 1.45 ± 0.27
Q371V | 1.49 ± 0.2
Q371E | 1.26 ± 0.48
A406F | 1.4 ± 0.3
A406S | 1.41 ± 0.33
A406T | 1.42 ± 0.35
P179W | 0.088 ± 0.11
G233D | 1.56 ± 0.24
F25C | 1.63 ± 0.46
H313A | 1.33 ± 0.14
H313V | 0.495 ± 0.12
V77P | 0.512 ± 0.16
R415M | 1.4 ± 0.16
L190I | 1.04 ± 0.35
E376S | 1.57 ± 0.24
E376K | 1.41 ± 0.61
E376H | 0.914 ± 0.14
G180C | 1.09 ± 0.31
C391H | 1.46 ± 0.11
E14F | 1.13 ± 0.088
A429W | 1.21 ± 0.38
A429L | 1.48 ± 0.15
L101I | 1.06 ± 0.38
K108Q | 1.39 ± 0.12
L290W | 0.691 ± 0.1
L290M | 0.891 ± 0.12

Variant | STK11 functional score
D176F | -0.058 ± 0.09
R75T | 0.85 ± 0.23
T209C | 1.12 ± 0.13
T209Q | 1.5 ± 0.5
E138N | 0.232 ± 0.14
D68Y | -0.0799 ± 0.081
Y261V | 1.22 ± 0.4
S31M | 0.857 ± 0.12
L160V | 1.26 ± 0.14
P324E | 1.53 ± 0.098
M18L | 1.08 ± 0.34
Y36W | -0.265 ± 0.082
C73P | 0.227 ± 0.098
K287H | 1.3 ± 0.15
V110D | 0.338 ± 0.084
V110N | 0.651 ± 0.79
V110T | 1.51 ± 0.13
E256A | 0.686 ± 0.64
E375W | 1.54 ± 0.31
S404I | 1.22 ± 0.13
M22Y | 1.57 ± 0.096
M22T | 1.63 ± 0.51
N259F | 1.25 ± 0.24
Q137Y | 0.779 ± 0.3
A417T | 1.55 ± 0.17
G394N | 0.969 ± 0.76

Variant | STK11 functional score
P89Q | 1.4 ± 0.12
P89V | 0.683 ± 0.088
P89I | 1.41 ± 0.25
A93G | 0.685 ± 0.085
E121D | 0.812 ± 0.56
S299L | 0.649 ± 0.57
I322D | 1.18 ± 0.52
R74F | 0.896 ± 0.37
N412A | 1.53 ± 0.26
R310I | 1.59 ± 0.16
A389T | 1.25 ± 0.3
A389K | 1.61 ± 0.17
A389Q | 1.18 ± 0.17
L164S | 0.135 ± 0.1
L164W | 0.051 ± 0.1
L164I | 1.16 ± 0.17
E98Q | 0.273 ± 0.089
